± gives the uncertainty stated by the source.
Assay: self-splicing fitness, log relative to wild type (ln ratio); higher = more splicing; Tetrahymena group I intron in knt gene, E. coli kanamycin selection, DiMSum; sequences stand for … in CUCUCU…GGAGGGAAAAGUUAUCAGGCAUGCACCUGGUAGCUAGUCUUUAAACCAAUAGAUUGCAUCGGUUUAAAAGGCAAGACCGUCAAAUUGCGGGAAAGGGGUCAACAGCCGUUCAGUACCAAGUCUCAGGGGAAACUUUGAGAUGGCCUUGCAAAGGGUAUGGUAAUAAGCUGACGGACAUGGUCCUAACCACGCAGCCAAGUCCUAAGUCAACAGAUCUUCUGUUGAUAUGGAUGCAGUUCACAGACUAAAUGUCGGUCGGGGAAGAUGUAUUCUUCUCAUAAGAUAUAGUCGGACCUCUCCUUAAUGGGAGCUAGCGGAUGAAGUGAUGCAACACUGGAGCCGCUGGGAACUAAUUUGUAUGCGAAAGUAUAUUGAUUAGUUUUGGAGUACUCGUGGUCG
Method in brief: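 Fitness was computed with DiMSum as the error-weighted combination of replicate fold changes, kanamycin versus none, each normalised to wild type. The library randomised all eight intron nucleotides of the P1ex region, with the intron placed in the knt kanamycin-resistance gene on pET-22b(+) in E. coli BL21(DE3). Six replicate transformations were grown overnight at 37°C or 30°C on LB agar with or without 25 μg/mL kanamycin, plus 100 μg/mL carbenicillin, 50 μM IPTG and 0.2% rhamnose. Pooled colonies were amplicon-sequenced on an Illumina HiSeq 2500.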

Sequence	self-splicing fitness (ln) (30 °C)	self-splicing fitness (ln) (37 °C)
GGUAAGCAAUAUUACGACCU	-1.81 ± 0.18	-1.93 ± 0.24
GGUAAGCAAUAUUACGACUG	-0.569 ± 0.12	-0.0619 ± 0.14
GGUAAGCAAUAUUACGAGAA	-2.48 ± 0.42	-2.67 ± 0.37
GGUAAGCAAUAUUACGAGCG	0.017 ± 0.17	0.512 ± 0.17
GGUAAGCAAUAUUACGAUCA	-0.121 ± 0.1	-0.203 ± 0.1
GGUAAGCAAUAUUACGAUGA	-1.83 ± 0.26	-0.16 ± 0.2
GGUAAGCAAUAUUACGCAUU	-1.86 ± 0.14	-0.797 ± 0.12
GGUAAGCAAUAUUACGCGAC	-2.04 ± 0.16	-1.19 ± 0.2
GGUAAGCAAUAUUACGCGUC	-1.95 ± 0.2	0.649 ± 0.18
GGUAAGCAAUAUUACGCUAG	-4.34 ± 0.36	-2.92 ± 0.29
GGUAAGCAAUAUUACGGCCU	-2.34 ± 0.33	–
GGUAAGCAAUAUUACGGCUC	-0.214 ± 0.14	-0.443 ± 0.16
GGUAAGCAAUAUUACGGUAU	-1.32 ± 0.074	-1.44 ± 0.11
GGUAAGCAAUAUUACGUAUU	-2.21 ± 0.12	-1.22 ± 0.13
GGUAAGCAAUAUUACGUCGC	-1.17 ± 0.13	-0.683 ± 0.13
GGUAAGCAAUAUUACGUGAA	-1.52 ± 0.098	-1.18 ± 0.14
GGUAAGCAAUAUUACGUUCC	-2.47 ± 0.18	-2.85 ± 0.24
GGUAAGCAAUAUUACGUUUU	-2.02 ± 0.12	-0.929 ± 0.14
GGUCAGCAAUAUUACGAAAG	-1.78 ± 0.084	-1.22 ± 0.12

Sequence	self-splicing fitness (ln) (30 °C)	self-splicing fitness (ln) (37 °C)
GGUCAGCAAUAUUACGAAGA	-1.72 ± 0.18	-0.837 ± 0.19
GGUCAGCAAUAUUACGACGA	-0.308 ± 0.072	0.501 ± 0.11
GGUCAGCAAUAUUACGAUCG	0.0558 ± 0.12	0.097 ± 0.16
GGUCAGCAAUAUUACGAUGA	-0.626 ± 0.087	0.0621 ± 0.099
GGUCAGCAAUAUUACGAUGU	-0.0366 ± 0.056	0.261 ± 0.076
GGUCAGCAAUAUUACGCAAG	-1.92 ± 0.17	-0.453 ± 0.16
GGUCAGCAAUAUUACGCACA	-0.667 ± 0.082	0.412 ± 0.12
GGUCAGCAAUAUUACGCCUA	-0.826 ± 0.12	-0.243 ± 0.14
GGUCAGCAAUAUUACGCGAG	-1.93 ± 0.13	-0.499 ± 0.13
GGUCAGCAAUAUUACGCGGA	-2.04 ± 0.47	-2.17 ± 0.41
GGUCAGCAAUAUUACGCUAC	-3.55 ± 0.28	-2.17 ± 0.16
GGUCAGCAAUAUUACGCUAU	-1.32 ± 0.092	-1.03 ± 0.096
GGUCAGCAAUAUUACGGAUG	-0.625 ± 0.095	-0.309 ± 0.097
GGUCAGCAAUAUUACGGCAG	-0.557 ± 0.081	-0.497 ± 0.11
GGUCAGCAAUAUUACGGCUA	0.0808 ± 0.098	0.494 ± 0.12
GGUCAGCAAUAUUACGGGAA	-1.5 ± 0.16	-0.702 ± 0.15
GGUCAGCAAUAUUACGGGGC	-4.04 ± 0.33	-1.11 ± 0.4
GGUCAGCAAUAUUACGUAUA	-1.7 ± 0.18	-0.369 ± 0.18
GGUCAGCAAUAUUACGUAUU	-0.159 ± 0.055	0.511 ± 0.071

From the supplement of paper PMC7877785
